Measured values: PMC2034485

Biological target: Rad18 S471A;Rad6 (hHR6B) (Homo sapiens;Homo sapiens, UniProt Q9NS91;P63146 1-495;1-152, S471A|)
Assay: EMSA, competition

Sequence of Rad18 S471A;Rad6 (hHR6B) (Q9NS91 whole entry S471A, chain 1 of 2): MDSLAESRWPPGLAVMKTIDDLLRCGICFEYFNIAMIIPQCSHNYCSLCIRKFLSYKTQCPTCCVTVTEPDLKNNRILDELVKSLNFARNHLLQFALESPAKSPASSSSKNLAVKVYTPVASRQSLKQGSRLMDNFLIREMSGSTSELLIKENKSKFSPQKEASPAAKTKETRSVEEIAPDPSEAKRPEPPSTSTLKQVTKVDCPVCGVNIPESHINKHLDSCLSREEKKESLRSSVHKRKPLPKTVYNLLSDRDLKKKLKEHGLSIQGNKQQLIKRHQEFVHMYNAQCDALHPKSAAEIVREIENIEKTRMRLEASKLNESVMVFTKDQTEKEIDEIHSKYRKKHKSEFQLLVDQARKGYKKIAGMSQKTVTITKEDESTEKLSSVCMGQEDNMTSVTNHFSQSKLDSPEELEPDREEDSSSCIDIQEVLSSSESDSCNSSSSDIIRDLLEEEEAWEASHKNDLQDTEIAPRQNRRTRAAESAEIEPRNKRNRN
Sequence of Rad18 S471A;Rad6 (hHR6B) (P63146 whole entry, chain 2 of 2): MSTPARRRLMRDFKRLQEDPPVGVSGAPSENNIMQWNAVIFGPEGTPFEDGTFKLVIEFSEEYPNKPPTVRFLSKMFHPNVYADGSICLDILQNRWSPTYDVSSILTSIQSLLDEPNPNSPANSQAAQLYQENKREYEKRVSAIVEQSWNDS

TTTTTTTTTTTTTTTTTTTTTTTTTTTTTTTTTTT (ssDNA) [35T]: binds.
